Assay: soluble on expression in E. coli; label from the status in PepcDB or PDB records

Sequence | soluble on expression in E. coli
MPDGGLAAPDRAVLPRAMTPPPSTSRTYDAVIVGGGHNGLVAAAYLARAGRSVLVLERLDHTGGAAVSTKPFAGVDARLSRYSYLVSLLPKKIVRDLGLDFRVRARTVSSYTPVERAGRPTGLLVGGGERRTRESFARLTGSQREYDAWQRFYAMTGHVAQRVFPTLTEPLPTRDELRRRVDDETAWRALFEEPVGVAIEEHFDDDLVRGVALTDALIGTFADAHDPSLAQNRCFLYHVIGGGTGAWDVPVGGMGALTDALAGAARAAGAVLATGHEAVRIEADGHGAEVTFRSADGEGVAAARHVLVNASPRELAALTGDAPPAPAEGAQLKVNMLLTRLPRLRDPDADPREAFAGTFHIAEGYEQLAAAHARAAAGELPAAPPSEIYCHSLTDPTILGPGPAAKGMHTLTLFGLHTPARLFARDNDAVRAELLKSTLAQLDAHLAEPLADCLATDADGRPCIEARSPLDLERDLGLPGGNIFHRELSWPHAQEGTGHWGVETGRARVLLCGAGAVRGGGVSGVPGHNAAMAVLDGTTGLEHHHHHH | not soluble
MHRELLDALSVITEEEQRILDEQRGIDPQLYTEKKELIVDSEKLLKKGKLIQVRPHTRFVNFPKHKHNYVEVIYMCQGTTTHILNGSKVILEAGDLLFLNQNAEQEILPAGEQDIAVNFIVLPEFFDTAFSMMDMEEENALKEFLVGALCGKNDNTSYLYFHVAEILPIQNLVENMVWTIFYDQPNKRRCNQITMGLLLLQLLNHVDRMETGTAAFDRELTG | not soluble
MGYDVTRFQGDVDEDLICPICSGVLEEPVQAPHCEHAFCNACITQWFSQQQTCPVDRSVVTVAHLRPVPRIMRNMLSKLQIACDNAVFGCSAVVRLDNLMSHLSDCEHNPKRPVTCEQGCGLEMPKDELPNHNCIKHLRSVVQQQQSRIAELEKTSAEHKHQLAEQKRDIQLLKAYMRAIRSVNPNLQNLEETIEYNEILEWVNSLQPARVTRWGGMISTPDAVLQAVIKRSLVESGCPASIVNELIENAHERSWPQGLATLETRQMNRRYYENYVAERIPGKQAVVVMACENQHMGDDMVQEPGLVMIFAHGVEEI | soluble
GTIITVTAQANEKNTRTVSTAKGDKKIISVPLFEKEKGSNVKVAYGSAFLPDFIQLGDTVTVSGRVQAKESGEYVNYNFVFPTVEKVFITNDNSSQSQAKQDLFGGSEPIEVNSEDLPF | soluble
MGHHHHHHSHMKTTLKMTALAALSAFVLAGCGSHQMKSEGHANMQLQQQAVLGLNWMQDSGEYKALAYQAYNAAKVAFDHAKVAKGKKKAVVADLDETMLDNSPYAGWQVQNNKPFDGKDWTRWVDARQSRAVPGAVEFNNYVNSHNGKVFYVTNRKDSTEKSGTIDDMKRLGFNGVEESAFYLKKDKSAKAARFAEIEKQGYEIVLYVGDNLDDFGNTVYGKLNADRRAFVDQNQGKFGKTFIMLPNANYGGWEGGLAEGYFKKDTQGQIKARLDAVQAWDGK | not soluble
QITYWKERQRRKTIRAEEIRGLIYRIWKIYPSLLGQELLESTIFVFMVLAAVARLGAEDVAVYKLLDLVCGMLELPVYAYAAATQTYALQNHAAGKKAAVRSYEK | not soluble
MNATPASADDLIVIGKIYSVHGVRGEVKVYSFTDPIGNLLDYKTWTLRREGSVEKQVELVSGRLQSKFLVVKLKGLDDREEARLLSGYEICVPRNLFPDLDDGEYYWYQLEGLKVIDQLGQLLGKIDHLLETGSNDVMVVKPCAGSLDDRERLLPYTEQCVLAIDMAAGEMKVEWDADFLEHHHHHH | soluble
EQTALKKVAEMARLADSYVSAWGDEAKVSDETLRRLLTSLGYDTSSDEKLLASAEKKHKKDVLAPVLVLRDGEPVEVELNLGTSARESEFSWRLETEQGEVLEGYLQSQIVRDERAEGGPLVFALPKNLAWGYHKLIISRKRRKTPYEMSLIITPKACFKQEDLNQ | not soluble
MIERLFRLIKPGTRQQMVCFHHAGGSAEYFLPWKTDLPPDTALYAIQLPGHGGRINESLLHNLHQMADVIAQSYVYLPVRDTFFFGHSMGAALAFEVALRLQKAGRGITTLYVSGRLPPHKNTNTDFYRQSDVSILNKITQLGGSTLDYQQPELKDLLLPIFRADFTAIETYQRQCTELLNCSVMACVGEQDTEVSVRQMSEWCQVTKGAFRLQVFPGGHFYLNHAQKRLLAFINQSVAAQQSSKECKEYHDEI | not soluble
MQMQPKVGQFRYYPSVGSLNTYLTNMLEKIRVELPDIQRISFALYDEKKDSIKTCADSSPVSHDFVHYELPLANLPSLQQSKESGALRIIHDLANQAKSHTPHNRWLLEQQYCSSLVKPVFDQHTFVGFLFFNASMSHYFSASVVERLETYLSLIQQSICGEYALIHQLVDHVHQIETQSPEHWLHIKQHKERISRYARIIALDVADQYALDDELIENISQFATCHDLGKLALPADLLQKRASLANHEKEQVHNHIEYGIDLLNEVIAKLGTPHHPCLAVLREIMAYHHEFLDGSGYPFGLVSDQIPIPARIIAVANIFDALTAHRPYKQAQSIPHALLELEKMVSDGKLDRHCVNALRENQEELKEIVARFPEQDPKDQGITH | not soluble
LIPILGLGNYTAQVDIELDFSAVEQTRKVFDPNTPATRSEYTLEDYNNGNVVAGVPGALSNQPPADASIPQDVAQMKDGSVMGQGSVHKEATRNYELDTTISHERKQSGVINRQTVAVAVKSRSSVNPDTGEVTYTPLSEADLNSIRQVLIGTVGYSENRGDLLNVLSMPF | not soluble
MQSLTTALENLLRHLSQEIPATPGIRVIDIPFPLKDAFDALSWLASQQTYPQFYWQQRNGDEEAVVLGAITRFTSLDQAQRFLRQHPEHADLRIWGLNAFDPSQGNLLLPRLEWRRCGGKATLRLTLFSESSLQHDAIQAKEFIATLVSIKPLPGLHLTTTREQHWPDKTGWTQLIELATKTIAEGELDKVVLARATDLHFASPVNAAAMMAASRRLNLNCYHFYMAFDGENAFLGSSPERLWRRRDKALRTEALAGTVANNPDDKQAQQLGEWLMADDKNQRENMLVVEDICQRLQADTQTLDVLPPQVLRLRKVQHLRRCIWTSLNKADDVICLHQLQPTAAVAGLPRDLARQFIARHEPFTREWYAGSAGYLSLQQSEFCVSLRSAKISGNVVRLYAGAGIVRGSDPEQEWQEIDNKAAGLRTLLQME | soluble
MDTEDTSGYSSLKSSPQSSDENFFKRLQWGKIRLELKTPEFLKESSELEIEKNEKSGIQKCGENEGENEEKCEFRPVVTPNEIDSHKEWYHRLLMLKLEYKRGERGAFPPFPPPPLPSMMIAASNAVSFNAFDEVKRAAQAKTAKSPSTSSLERRAQRFCPADFQPLPPPHIYIEMIRTLAPHQYIDLTYALAGSVLLEMGVKIPDRYPNLPPKIEPYRDIESEEAAHWTEMSSQSSSEGEYSDASESAKLVQTLNRRKNKERRETRKIRIVASMLTSSTFSMKKKRKNEGLDFKHETFPRDYDYKEKTLSTFIPPRIARRPPIPPPQFFFPPSPHFSREPHSLPPMPMMLPIPLPPMSLSSPISPIHFQKNLQSTPERPSRTDSSRVHAKQIKNDIIIVEKVTDV | not soluble
MSEPSNLVSKFQKLRVEASKIQNEFKEKPSYTLFKETLDISEKLLEKQFEFNDEMKQIQQNVMSELKSVKKELKQATSIKDLLEILEIIQKIFKKQDEFQQVQENQNKSIENLNSELKTVKAELNETKKQQESQEKLIDNSDKNLKLILESILKFQKSQDQIMMKIMEGSAVQDVPLGTVELTKIDPFFEILVIWTESCGIFASENHWKLRVCGSDTIRHIKLRINSLAKVDISSFRMVLRGKLLEDHHSLAYYNIQEGALIWLYSHLKMSETSSLMSQFQKLRVETSKIYNEFTEMVKNETSDMKKQQETQILKEQDEFQDEIRQEFLKIQENENKLIEKLMSELKTLKTELNETKNQISDLHNATKQQESQAQSMNDLLTKNSNNNLKMMLKIQEGQDRIMMKIQEGAAVKDVPIESGELAKNDSMFKIFVSWSIPGGIFVSENRRKLPVYESNTIRQIKLRINSLKSQDQMKIQEGEFAKKIEESVAPVKTPLEAPIEDKKLDNKKPFFKITVHLHGGPNASVYGRKYNHLVFDAHTIRDLKVRIKALIMQSSPIKLRTELYRLFFVYTLLEDHQTIAYYKFKKAQHLT | soluble
MDPFDEIVIKNYLSFPLVLQKLLSIKKLRRIEFFSQNMATHIVFDELGMTTKGFRPDKEVEKLLLKLELIDKRIERTLFRQKHFERFWATLKPLEQQLLIRRFKYKEEVNCPHRLIESVLDEIEEIETAICLMENIELEENELSDDVEENLERMCDFFAL | not soluble
MKVVVIDAGHGAKDSGAVGISRKNYEKTFNLAMALKVESILKQNPKLEVVLTRSDDTFLELKQRVKVAENLKANVFVSIHANSSGSSASNGTETYYQRSASKAFANVMHKYFAPATGLTDRGIRYGNFHVIRETTMPAVLLEVGYLSNAKEEATLFDEDFQNRVAQGIADGITEYLDVK | soluble
MGSDKIHHHHHHMAQDIRVFKSKRDIETAVIQLILEEDFSKLTIQQICQKALVSRSTFYSHYLDKYDVVEQLVAKTITQLETIFSQKYQSQVSPENLKDYLADIYQFYQENARLLKALLKTPLTGTGNFEEAFSKLCQTYINHLAATTKDNDHLPPQLLAEIFTANVVTLMKWIIEHGPSENVTHFADWLHDLFLQYLQE | not soluble
MGSDKIHHHHHHMQKLTLKEVQAKAVEILVYIDNICRSNNLHYTLFYGTLIGVERHKGFIPWDDDIDIVMPRPDYELLIKILKNDSNYQLLSFETRKHFRYPFAKLVDPNTVAHSKQYFGGEDKDLGVFVDIFPIDGIPDTQKERNELRKITEQYRLNLMDTLGLSYARSFHLSKALIKLITRYPNHFKVKKVGNNQYWRDLYQTEAKKTPFGATKHCGYLEWIHIDWGVFPNEWFLEYEDVEFEGHKFMAIKNRKQFLTLRYGDYMEMPPVEERITHHPYDFYQK | not soluble
MGSDKIHHHHHHMQVRIERAERIESELEEHVGDQTFVEESRFLEEDEQREGEILDQIIFVDGKRRSFVRITTDEGITGIFAELCVGAVIWDREGGTKTLFSPDKPPVKERVLGFSQSFQEEGYEEVGGILFKVVKEGKDAMQSIDLYMRSLEIEEVRKHMDKNILIVKDGPAARELPFEENVGPIGLVKNIGVTELSKEDFKKLRFLKKGKRSKMFVSSRETPLKKVGAYVKLIDGEGIRGLVRLETYVKDDNQIPYIRKVFDDLAKTLPHLTADLPIPRLPENILPIQFLEENLSYYLTDKNYMNTRLFAYIGR | soluble
MLKSIELNSHIRNRLAEYLKGRGMDFQTAMQEEKGNKEIAAIVHSGLPTLVRKLYSEQKMQKFFWEKRDLIADYISRRMQG | not soluble
MDIISLRKSPQYLEEAIAYFQRKWADENSRMVYDNCFRTCLESESPLPQWYLLINGEGEIIGCAGLATNDFNSRMDLYPWLVALFIEEQYRGHNYGNLLIKAVEEDTRRLGFGNLYLCTTHTGYYEHFNFVYIGDCYHPWGEHTRVYQKEI | soluble
MADYIYIDNSNLYIEGRRVSAVQQRLATNINEAMRDGILDHGYTISFGKLHEFLTGGDLTKIKRAALYGSRPPPNDSIWKSAERAGFELHLEDRNVANKEKKIDTGIATLLTKDAYKHGKPEEDLFVLVAGDKDYVPTLNELRADGYQVEVVFWSHAAKELKDAATRFISLDQHLEHLRF | soluble

Source: the DeepSol protein solubility set
